Measured values published in IntAct's records for PubMed 27524201.

B1: Kremen protein 1 (Homo sapiens), Q96MU8 (parent)
chain: MAPPAARLALLSAAALTLAARPAPSPGLGPECFTANGADYRGTQNWTALQGGKPCLFWNETFQHPYNTLKYPNGEGGLGEHNYCRNPDGDVSPWCYVAEHEDGVYWKYCEIPACQMPGNLGCYKDHGNPPPLTGTSKTSNKLTIQTCISFCRSQRFKFAGMESGYACFCGNNPDYWKYGEAASTECNSVCFGDHTQPCGGDGRIILFDTLVGACGGNYSAMSSVVYSPDFPDTYATGRVCYWTIRVPGASHIHFSFPLFDIRDSADMVELLDGYTHRVLARFHGRSRPPLSFNVSLDFVILYFFSDRINQAQGFAVLYQAVKEELPQERPAVNQTVAEVITEQANLSVSAARSSKVLYVITTSPSHPPQTVPGSNSWAPPMGAGSHRVEGWTVYGLATLLILTVTAIVAKILLHVTFKSHRVPASGDLRDCHQPGTSGEIWSIFYKPSTSISIFKKKLKGQSQQDDRNPLVSD
partner: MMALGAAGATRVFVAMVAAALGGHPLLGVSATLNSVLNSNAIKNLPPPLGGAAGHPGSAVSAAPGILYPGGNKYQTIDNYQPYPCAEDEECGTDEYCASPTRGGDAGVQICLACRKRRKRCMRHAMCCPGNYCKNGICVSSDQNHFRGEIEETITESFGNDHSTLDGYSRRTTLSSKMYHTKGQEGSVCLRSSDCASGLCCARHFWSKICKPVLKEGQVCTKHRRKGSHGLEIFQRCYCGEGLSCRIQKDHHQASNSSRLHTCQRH
B2: Kremen protein 1 (Homo sapiens), Q96MU8 (parent)
chain: B1 chain

Variants of: B1
Settings: with dkk1_human DKK1, O94907

Row | Variant | effect of a mutation on the interaction
1 | D90N | disrupting interaction strength
2 | V189N;F191S | disrupting interaction strength
3 | A311S | disrupting interaction strength

Variants of: B2
Settings: with lrp6_human LRP6, O75581
Sequence of lrp6_human LRP6, O75581 (O75581 whole entry): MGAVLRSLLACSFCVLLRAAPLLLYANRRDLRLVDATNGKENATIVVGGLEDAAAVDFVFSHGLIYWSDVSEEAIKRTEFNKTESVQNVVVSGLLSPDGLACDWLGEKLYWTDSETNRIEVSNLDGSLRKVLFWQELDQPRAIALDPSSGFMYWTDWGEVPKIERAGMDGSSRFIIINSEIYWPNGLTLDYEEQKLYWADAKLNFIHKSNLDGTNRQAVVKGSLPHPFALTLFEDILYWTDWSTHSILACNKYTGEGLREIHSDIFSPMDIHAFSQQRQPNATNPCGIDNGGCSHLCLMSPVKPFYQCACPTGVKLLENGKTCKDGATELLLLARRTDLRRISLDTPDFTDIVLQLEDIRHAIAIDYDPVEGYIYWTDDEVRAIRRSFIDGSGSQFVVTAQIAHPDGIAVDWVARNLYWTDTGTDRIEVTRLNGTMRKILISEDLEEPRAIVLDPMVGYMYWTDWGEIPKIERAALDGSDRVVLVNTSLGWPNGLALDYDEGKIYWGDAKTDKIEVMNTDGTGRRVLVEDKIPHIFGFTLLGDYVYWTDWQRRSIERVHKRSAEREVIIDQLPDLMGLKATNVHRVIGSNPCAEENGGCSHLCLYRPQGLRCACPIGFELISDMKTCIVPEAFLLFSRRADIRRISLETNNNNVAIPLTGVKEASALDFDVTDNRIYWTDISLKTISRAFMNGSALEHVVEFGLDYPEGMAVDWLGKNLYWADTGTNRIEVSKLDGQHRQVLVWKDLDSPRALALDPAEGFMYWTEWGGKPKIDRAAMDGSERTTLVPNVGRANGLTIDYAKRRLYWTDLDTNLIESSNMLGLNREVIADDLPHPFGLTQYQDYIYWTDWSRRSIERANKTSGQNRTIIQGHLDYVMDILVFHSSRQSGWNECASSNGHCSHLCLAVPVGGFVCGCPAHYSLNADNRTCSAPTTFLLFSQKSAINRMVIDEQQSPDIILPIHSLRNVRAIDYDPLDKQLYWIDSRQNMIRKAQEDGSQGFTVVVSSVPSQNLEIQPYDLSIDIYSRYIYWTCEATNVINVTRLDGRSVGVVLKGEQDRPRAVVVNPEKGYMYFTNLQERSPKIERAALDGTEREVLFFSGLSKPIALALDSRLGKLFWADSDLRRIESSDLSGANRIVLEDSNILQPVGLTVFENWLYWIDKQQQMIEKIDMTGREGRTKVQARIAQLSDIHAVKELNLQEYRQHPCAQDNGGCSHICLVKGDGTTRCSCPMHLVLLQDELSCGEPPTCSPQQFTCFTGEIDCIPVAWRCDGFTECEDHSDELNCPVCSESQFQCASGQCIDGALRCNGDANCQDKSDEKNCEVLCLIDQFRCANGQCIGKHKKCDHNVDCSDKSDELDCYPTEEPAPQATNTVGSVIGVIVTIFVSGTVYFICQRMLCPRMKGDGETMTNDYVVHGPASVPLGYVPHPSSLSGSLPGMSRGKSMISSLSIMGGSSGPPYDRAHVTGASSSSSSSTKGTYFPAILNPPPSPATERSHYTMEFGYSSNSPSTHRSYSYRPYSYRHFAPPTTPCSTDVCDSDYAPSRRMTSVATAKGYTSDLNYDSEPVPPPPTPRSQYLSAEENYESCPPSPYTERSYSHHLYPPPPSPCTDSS

Row | Variant | effect of a mutation on the interaction
4 | A311S | disrupting interaction strength
